Source: publication PMC8318917 (The Journal of Biological Chemistry, 2021)

Biological target: T1, human TRADD death domain (199–312) (human, UniProt Q15628 199-312)
T1 sequence: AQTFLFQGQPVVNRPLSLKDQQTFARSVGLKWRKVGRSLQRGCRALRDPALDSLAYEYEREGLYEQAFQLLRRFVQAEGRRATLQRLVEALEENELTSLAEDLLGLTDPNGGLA
Test: NMR solution structure

B1: human p75 neurotrophin receptor death domain (330–427) (domain or fragment)
chain: KGDGGLYSSLPPAKREEVEKLLNGSAGDTWRHLAGELGYQPEHIDSFTHEACPVRALLASWATQDSATLDALLAALRRIQRADLVESLCSESTATSPV
B1: binds.
